Test results from article PMC5118228 (EJNMMI Research, 2016).
“And” between values parts separate entries of the source, which are not always exact repeats. Equal values may be shown once.

Assays:
kidney = test: Renal dose-effect relation (logistic regression, LD50); format: in vivo, mice; conditions: death before 90 days
Experimental: Dosimetry was performed according to the MIRD schema by using the spherical nodes S-factors from the Olinda/EXM software. S-factors were interpolated from the actual weight of the organs and tissue. All organs and tissue were assumed to be spherical with a density of […]. Mean radiation absorbed doses were obtained as a function-injected mass of peptide, assuming a homogeneous distribution in the tumor and organs. […] Owing to the short path length of α-particles, only the self-dose within each organ was included. The threshold for lethality was determined with renal absorbed dose and injected activity as indicators. Logistic regression analysis was used to determine the LD50 for presumed renal toxicity-related death.
Data analyses, graphs, and calculations were performed in Prism-5. Mann-Whitney t test was used to calculate the significance. The results of statistical tests were considered significant when P was <0.05. Biodistribution data were expressed as mean ± standard deviation (SD) and tumor volume data as mean ± standard error (SEM). Binary logistic analysis (forced entry method) was performed with SPSS software (IBM SPSS statistics, version 20).

in vivo = test: in vivo; set-up: species or system mice; conditions: male, athymic nu/nu, mouse, iv, 0.3 nmol, total radioactivity
Experimental: Mice were euthanized at 10 and 60 min p.i. […] Blood, organs, and femur-containing femur marrow were collected and counted as described previously. The uptake was expressed as percentage of injected activity per gram of tissue (%IA/g).

[1] = test system: neutrophil gelatinase-associated lipocalin (NGAL); test: Serum NGAL by ELISA (kidney injury biomarker); format: in vivo, mice
Experimental: MTD was defined as the highest dose given to the animals allowing 100% survival with no significant weight loss >15% throughout the experiment. Nontumor-bearing mice were randomly divided into seven cohorts used to evaluate MTD, six treatments and one control (n = 8/cohort); see Table 1. […] Control mice received DOTATATE (4 × 0.3 nmol) on four consecutive days. The animals were followed for 90 days. Serum was analyzed for the biomarker neutrophil gelatinase-associated lipocalin (NGAL) using ELISA (R&D Systems, 450 nm).

Structure (SMILES): C[C@@H](O)[C@H](NC(=O)[C@@H]1CSSC[C@H](NC(=O)[C@@H](Cc2ccccc2)NC(=O)CN2CCN(CC(=O)O)CCN(CC(=O)O)CCN(CC(=O)O)CC2)C(=O)N[C@@H](Cc2ccc(O)cc2)C(=O)N[C@H](Cc2c[nH]c3ccccc23)C(=O)N[C@@H](CCCCN)C(=O)N[C@@H]([C@@H](C)O)C(=O)N1)C(=O)O [^213Bi-DOTATATE, metal not drawn]
- threshold LD5 kidney dose (kidney): 11 ± 4 Gy
- LD50 mean renal radiation absorbed dose (kidney; mice with and without L-lysine): 20 Gy and 20 ± 8 Gy
- tissue uptake at 10 min (in vivo; renal uptake): 30.8 ± 5.8 %ID/g
- tissue uptake at 1 h (in vivo; renal uptake): 18.4 ± 1.8 %ID/g
- tissue uptake at 1 h (in vivo; stomach uptake): 1.6 ± 0.5 %ID/g
- NGAL level ([1]; high-dose(−), 28.7 ± 1.2 MBq, without L-lysine, serum ELISA): 15.8 ± 3.5 ng/mL
- nephrotoxicity (NGAL) ([1]; low-dose(−) and low-dose(+) cohorts): No nephrotoxicity
